According to the DeepSol protein solubility set:

experiment: soluble on expression in E. coli; label from the status in PepcDB or PDB records

Sequence	soluble on expression in E. coli
MAHHHHHHMLTIVDELKAAVMARHEADAPKMKILKEKYKNEKLSDATIDAAYGGMRGITGLIYESSMLDKEQGICFRGMTIPECCEKIPKSWKGGTSPLPEGMLWLLMTGSIPTDKQVKELHVELHRRADNEAITAATKTIASLPENTHPMTQLSTGVLALQAFSKFAPAYASGKAIKSNFWEYALEDSLDIIARTPYLAAAIYNRLTTGRAAVLNPANPDLDWAANFTNMLGYQDEKFWDCMRLYLSLHADHEGGNVSAHATTLVASALSDPYLSFSAGLNGLAGPLHGLANQESLSYLFEMRDKCKAAGVNMKDRKELAAGLEKLTWERLNAKRVIPGYGHAVLRIPDPRYMCLREYCLKHFPDDELFFLVDTIYSIMPDILKKHGKTKNPFPNVDAHSGMLLQHFGLTEQNFYTVLFGISRQLGALTGVVWDRLQGRPIERPKSITSDALFKKFKIE	not soluble
MAHHHHHHMMLRRLFVFDAARATNMRFLTMTSEVRDNLTKQLSALKEECRGQGLDLADMSDASRVAMRTVQEGLTRVSVEDEIFKGKSITLSASMKAYTARLSNLQDEARSIQTEVDALLKMMWGTEAPTKAASFASPPRSTEEVGVSSSSAAAAAGGKGNETVDDEFIVEPPPLAKALGNDKRPAERVEAERVQGTAHKPVEEMRVEEIEVETIEVEVEPNESPADNMKITDITRELYERGVNFSDCLDARTLRQRYKDVLAGKISPGISPGTATSSPATAEANTNQPRMPQHRPYQQQQQQQQQQLNTNESGLAHDPYPNAYRKMVDPMKHVWELKNELAAEKGIDPKSVDLWSGKCKLEDHKLLYDYPSVQNYPIEVRQKGDIPR	not soluble
MAHHHHHHMMPTQSEEQTKAQIPKSQAKIVNELIENKDTICAWCFDVLKYELKNEKFDKVPPLIQSLHNDGFKIPFFVKWMKLNDVKDMGSYNYDAYELNGCIGCLGETDIMELRYYALESSLNDTRFYPITLKDFPFLIVTITYLFNFEKCAHVYDWVIGKHGIKISFVANKRRYSSTFLPEVASQHNFDHQTTVKKLIRKANYRGEINDELLENIEVERYEGVSCSLTHVDYERVKRD	soluble
MAHHHHHHMMRWAVDVTGIDVAEDLEREQRKCVYKVPRAANGESWHAVDDWRANASEYNDELGKVWALTRDEVQDAIAERALTANALFCNVGRTLAGALQRQGSITIAAGCASQLRGSCGRGLQWDGLLSNTQSIVSNDFACDAVPSTREVRVFSTFLNAEGKRMTVTVNMTQPTYRGVDVVAAFLQQAVATNESLSQRYSTNPRLYKLFIADEDTGEEEMAAQLDLGAQNFSCYAVNPMPAAKLFLFPQRTALLNTTTRDVNLTVQVRPLDPQAKAVQRQCVVPADMLAESLEATICSRLPASGIIQGSLRIMHGPMELNINEYYNFGAGCGQPNCPIAERTVLSLFRFGVREVVVNGRAVEEAPTEVLRDLTEDIIIDMGVDEAVSFQQFEVICINKYGARQQRLLCVDGEHLYTMRPNASEALPKTTERTIKDIEEVRIFADKPKYMEIAYTKSSHFEEDHFECTTTYNCALLNEKIRIVRRELRKREAEEQAASVKNETAMQRFMTGIRSRWFGGALQS	not soluble
MAHHHHHHMMSADPNSFEAIRPKLTAQTLQDIEGLDPQKYGFGREECCGPIPTKIIGSMSLREHIFLNTRMPAREWDKRTENVPGFKELSQRVKHALPDASFTVSHLDQDTEDSILHCKVDDDKKAVIITQYSSVSEPYELPWEVKGTLAVDRSGEYFIFVCSHFTRDARCGYCGSVLIDLFRHALLEKMGAGGTARVTVCSCSHVGGHVYAGNVIIYSRHGGICYGLFKPEDVLPVVDAIAEDKGAIPESLRNRIRGQMGSNAS	soluble
MAHHHHHHMNYDKLNLFKENFDMMYVIEEIETHLHEKKHLLCDINENILISEKNKTSIDIYEKHLIEKQIQILKKNKINYKKLNNINYVKYFLPLCIQPKTNNTDKCLSERDVYMKNFKKKNILRELHVKKRLTEYRINQFIEKYTGKFLKNNVLHKQISKIYNNKSKIEIFIKGDNFSYNRVIGDIAFFDSKPNVLLENVKYIVRKRKKKKLNNIKKNINI	not soluble
MAHHHHHHMPAVKWSSPVVRNELMSLTRLPAEMQRAAAAAVAAHKNAYSPYSNFSVGAALLHDDGSVTAGCNYENCTLQSCCAERCAIVRANVEGHRRANAVAVYGRSYGAATPTNPPPVDALCPPCGLCRQLLVEVADLSQNFEEFMVVLVALDAQRAKVVRLADLVPAKFGPADIGMDVTQLGCHPSA	not soluble
MAHHHHHHMPCNCRQGTGTHDHLQDGFARGGMFGVGSPLNAQVDVDLLQLWNSRNSVSEAARIFDPAKGDNDQPICSDADPELLLLIPLKEVCRIRSVSILGTNDDFAPSQVKLFCNPTGVVGFDSVRRLQHQEEIQLAQVSADDRIAYRLNPAKFSSAGCMGMLFEHSFGDDETHILRIELFGESTGRPVYQQTATNVVYEAMANPTDHNVGEELKKTFTIF	soluble
MAHHHHHHMPDGQQQSAKCATQVQNGEEATRNTYPRRDDTKLHVGLDYSSFYLDTPYKIIKCMNKGSHFLYWGSDTLCGQSDQVTKEFKMNEMKKNNCEELRNSRFIFFDSQKKLLVLRYNIRKNSFNYVSDSDPIYVYFYQLHEKNFLDDNIIKENKNSLLIYPYTYVKIWESLTCYINEEVINKIEPVNKTFCSSFLEEEVEEEKKKKKGGTDLRREEEMNLCNQPYMFYSVIPRYPASKTYPKEGRVSGGSRHKKEDNVGVITAEGDGASSINMGGDGSGGINTEGDGSGGAGGINMEGDHPVDPDEPPNDHLDGA	not soluble
MAHHHHHHMPHIPRNHYLVVHDAIRKLLGPDAQLAAFVKAQHAFQCDMLVNDARTDPEELTRAGARHSGGGIGDDAAAKAGVGELARGLQAVLGICDVVPHTRRVDVIFRDRSLIQLALGAAKRDLPYALETGADVNQEPDWRLRNRLRISLGYDEELFLAQCTRSMNVAARILEKCAFDYARYSALMSTNAAMAAMYEASGQRWQAVLPPVTYWQAHCYSLMKAYPCRHYQQIVATVEHNFAAYYGEFPMTNPYCDGEDLNTIQVVRWLCEAFNAGAAVSHVTSAASSPVTVNEWQTVDCSMPAAMEDGDAEKGAAVMDNMADGRSSQEGRH	not soluble
MAHHHHHHMPINPEYIPLPKSKEMFAIASWRDSPGLNATPAAHPGVSGSPHLASLDALRNGKGMAGMHAAATTTTTTTNTVTAAGGSLLPPAVQPAEDSKDAAKSKAPLTVAAGKKKKRKPASGATTSTASVAGSGVRSDDVDDFFVHILLPSCVSMQTLEFELQAQTTPLKSIEVGLPKVLFPRKPVGGAGGDASPPTTTALAPAVASAKIVSSPSCAPAVNPTNNELSLPLMRLPPADLPEPAPSESSCAAPPSASAAAAAHVNGDGTASAAAASGEHHGGEYQVSLLFAEKAEAEKTVTFVQRRWPTAAVSLASRSRSVLNATLVLKGMPNQAKTETVLTEMQNLPHTPSYVRLLRSERGVFKGVVFVKYANCEIAEECKLRLEKFVLGSRPLKVEFKKKSTAAASVSAAVIESKRSLQELVRELRVSAEHEGFHLSRSDVAKEALKVLKQLCQSYGLLFDMNDQQVTVRRVLGSNGIGSEKPSPALRPQSMAPAWAPATPAPLRPMDFKGISHWKDIRSQASTLGIMRPLGPEDGKPAFSAGRGRPL	not soluble
MAHHHHHHMPPSTYAATAANAEAQGDDVDMHVMTYDQRCHGRSTFVGGEDHLSIEVLVRDFLDVLQYAKTELYSNSNVYVLGHSLGGAVVARALSGNKSALERVSGVLLVDVVEGTAQLSLQHMKSFLKNRPNTFPEVKDAEVWFLRMGGMQNPQGAAVSVPPLLQKNDETGLWQWRTDIRKMESVWDGWFAGLDEAFISLPCAKMLCTANAERLDKTLTVAQMQGKFQLEVIGNGCGHYVMDDATPTVVAKVRRFVKRNEELAQKLQLMNKNLSGQKINTTVPPTRT	not soluble
MAHHHHHHMPRDTHVLRFKVLTVECAALPDGQQYTVMYHRGNSNRSTPCYTAQGGVINFASMPEGAAVVHFKAGHGGGRFAPKYIRFMIEEYTRGMPRRLVGETEADCTQVLKDYGASGSGILTVVFRLYGTTAKMRIAVLVYPEHAPPLSFDGLIDPSEVAAPLPTQAVKVMSRGEAMMILMGLETLLERRRAMKAEGQSLPQSREEKKLAELEKRRKALVGSEGLATEVIKTRCEEVVAVQYTALARKHRNNFIGQTAAYLREMAMLAGEDFIGDDGDSSGDTVLEQLNRVNRSIEEVEMQVKKLEEEQAALRRIQHKVDVMAELTVSLDKVAALQQKMQVLKESRTALTEAMKKQAAKKNTPLAREVTAINTRIAALNAEQQQMAPRIQHMVAVAASHVVKWARSKNPPELDTKSCIDSLHETGGNARNPVDDLFSDAGKPKTSKEQSMLDDVQRKQVVEALKGLETTTAPLSTRSPTSASSSSGHRTPRDLFADAGLPSMGDFSDTKPKEEETATKRKGDTSTTPLHEDPLKPSGLGVDMFSAKPAPAAASNVPAGLPSMNDFMRSSTASRQQSAQPTFDFGSILQTSSVSPQMGGGFVLEPQPSEAAASSFAAAAPSAVSGAYQTKDYPYYDEMDDFTVPPDAADSKNYGAVEITGGIFSFQDDTSSPAYVAPRPTFDFGPSSGGDDRPSGVGVTVSPAETFSFGGGAADELSTNNPRNSSDNPYTGITNLPTYNFSS	soluble
MAHHHHHHMQKIQNAVRRRSRFFKWDVKWYSSKVKVEKKAGERHNDRHDSHDSHDSHKDIPQDSRPDTRVGQERKYNLWRWGCSGEGIFSSVKVGEKNKMPEKVPNFENAKIEKLSAGCDHAAFIVDGRIFTYGLNDKGQLGRSIEEENDQNKSYTLTPREVKTEGNVKFKDVCCGYKHTVAVDVNNNLYSWGWGGNFFKGANGLGHGNKQNLSTPKKVESFKSDDSEFVNICCGDQHSLVLTKNGKVYGCGRGEFGRLGKGNHGDQLFFEEIDFFISNNITVKGISCGHSFSAALSTDGEVYVWGRNDYGQLGIENSIGDLYSHEVYPNKVKYFDMENIKIKFIACGDNHMIACSENNVIFFWGSRAWLEPKAITLSPLYQNSVIKKNIDKIEAGGNTYYYSMLLSDNKLYSWGKYNSSCLALGDKKNHNEPTLVDSKLFNDEIVCDISCGRGRVLAKTLAAD	not soluble
MAHHHHHHMQKLRADWTKHFDSEKASMTAFRDYDFERRVNDMRRLQNAVDHFDHAVRQGMMAMKEIASAYEAVGQAFTELTLTNNNPVPGPGEAEEPNPYPTEADVQYMSQPNAGAAAADYAASVASTRMPDEANSQVRRLAKTFAEEARRINEGPPFQSYNAGIHRDVHNRLLPVLEHLKSINEYRHKHIEALERYNKYKAEVEKVEKHYTKKGKPFCDSKGHKKYTEKRDEAWKEYITRRDKFNKTFGMLMEVNDHAAAQIIHRYLVLNHEYLQQLVASMDRVLPAMAEVYPLNNEYNSLQNTLILEAVANAKTPFADHSKIRSKQADSDKSDGAGDERHEDVQEAMDAHYEAQQSTLTSMSSDGGSNLASGSRLEDSVSYDAHVNPSTALESMEQPPDPEQDDV	soluble
MAHHHHHHMQQSLKNQEHIWAVLQKMRMEMNECFAEHERMLRQAHGQLKERLDKIESAFVARNGGVGQLVGNSSSSLGHLDHATPVYTRFVSDKKGSPAGMRVTMLSTPPNERMQLMPPDSRGARSDVLPQPVDPTDWVALAAPSRQEATPAVSPHNRWTNDDSIHAEKTPSVDATCFEALNNLMNDDDFQHSTLESVIPSYTQDDDSKQLQSQPNLGTYTKKNDIIHMGAPGSSQTQHFTKSLKVTYMDGRPQAVPIPDGPPDEPDKLGIDVNAQCKVLVEFKRKRVLQFESKEYVPPGSYVMVGGDRGEDLGLVTYTWCETTKSLKGELGEFGNGSNKTVVLCVGLTGSTLTRSIGLGAGTVLRLADDSDVKQLHTVQVELERRAIDVCSQRVLERGLPMTIVDAEYQFDKKKLTFFYEAQQRMDFRELVRDLYKSFRARIWMELVEN	not soluble
